Laboratory results as given in publication PMC7063449.

Molecular target: bril-ACKR3WT (human) (UniProt P25106)
Assay: flow cytometry on cells

Sequence of bril-ACKR3WT (human) (P25106 2-332): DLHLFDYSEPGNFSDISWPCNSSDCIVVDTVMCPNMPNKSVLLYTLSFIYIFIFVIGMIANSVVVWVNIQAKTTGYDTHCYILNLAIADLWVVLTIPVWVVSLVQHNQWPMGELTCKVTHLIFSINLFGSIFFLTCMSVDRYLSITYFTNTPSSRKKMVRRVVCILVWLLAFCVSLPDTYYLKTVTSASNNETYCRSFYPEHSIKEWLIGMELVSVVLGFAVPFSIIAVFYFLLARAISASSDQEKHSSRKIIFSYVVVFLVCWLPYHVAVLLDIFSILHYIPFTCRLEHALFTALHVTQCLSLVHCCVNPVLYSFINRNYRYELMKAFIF

dissociative half-life: 7.2 min
Substance: HA-tagged CXCL12P2G (from UniProt P48061 22-93) (ligand)
